# Reference: patent US5910570
# Like-named read-outs stand apart in the source and are kept apart here.
# Legend:
# [1] = target: apomucin (deglycosylated mucin) prepared from bovine submaxillary mucin (bovine)
# [2] = target: serine containing acceptor peptide …
# [3] = target: apomucin (deglycosylated mucin) prepared from bovine submaxillary mucin (bovine); remark: listed apart in the source
# [4] = target: serine containing acceptor peptide …; remark: listed apart in the source
"Total activity (U), cell lysate [1] [U]",Km [2] [mM],specific activity [3] [U/mg protein],Km [4] [mM],Substance
16.2,–,–,–,cloned full-length (membrane bound) bovine GalNAc-transferase expressed in Sf9 cells (enzyme)
–,3.5,2160,3.6,"soluble, secreted recombinant bovine GalNAc-transferase (GalNAcTs) expressed in Sf9 cells (enzyme)"
